From paper doi:10.1101/771139 (bioRxiv, 2020)

Target: the molecule itself
Test: […]

B1: Bacillus subtilis SepF (natural protein)
chain: MSMKNKLKNFFSMEDEEYEYEYIETERESHEEHEQKEKPAYNGNKPAGKQNVVSLQSVQKSSKVVLSEPRVYAEAQEIADHLKNRRAVVVNLQRIQHDQAKRIVDFLSGTVYAIGGDIQRIGSDIFLCTPDNVDVSGTISELISEDEHQRW
Does B1 bind?
Result: binds
